Reference: US12018084B2, “Anti-CXCR2 antibodies and uses thereof” (Cephalon LLC, priority 2018, dated 2024)

T1: Murine CXCR2 (Mus musculus, UniProt P35343)
T1 construct: expressed in transfected cells
T1 sequence (P35343 1-359): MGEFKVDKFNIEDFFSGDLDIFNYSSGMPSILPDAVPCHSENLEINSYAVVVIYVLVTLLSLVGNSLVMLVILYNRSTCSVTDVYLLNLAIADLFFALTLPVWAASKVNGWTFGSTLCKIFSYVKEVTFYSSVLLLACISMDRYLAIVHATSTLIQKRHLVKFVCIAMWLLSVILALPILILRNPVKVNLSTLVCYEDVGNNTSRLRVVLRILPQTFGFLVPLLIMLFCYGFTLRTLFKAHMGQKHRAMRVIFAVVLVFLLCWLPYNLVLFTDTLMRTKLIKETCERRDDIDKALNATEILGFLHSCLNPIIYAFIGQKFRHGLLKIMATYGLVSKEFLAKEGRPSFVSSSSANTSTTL

T2: Human CXCR2 (Homo sapiens, UniProt P25025)
T2 sequence (P25025 1-360): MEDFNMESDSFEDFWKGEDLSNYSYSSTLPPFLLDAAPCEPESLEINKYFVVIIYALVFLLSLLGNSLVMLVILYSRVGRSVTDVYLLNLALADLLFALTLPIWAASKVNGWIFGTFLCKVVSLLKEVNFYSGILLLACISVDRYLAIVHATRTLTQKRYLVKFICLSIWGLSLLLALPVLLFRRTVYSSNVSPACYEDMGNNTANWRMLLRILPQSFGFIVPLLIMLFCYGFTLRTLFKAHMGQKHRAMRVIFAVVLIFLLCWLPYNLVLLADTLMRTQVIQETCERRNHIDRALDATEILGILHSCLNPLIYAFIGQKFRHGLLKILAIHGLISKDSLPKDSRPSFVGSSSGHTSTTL


Key:
Murine CXCR2 = target: T1, Murine CXCR2; experiment: cELISA of hybridoma supernatants on cells transfected with murine CXCR2; format: binding; settings: hybridoma supernatant; fluorescence units relative to positive control (100%)
Human CXCR2 = target: T2, Human CXCR2; experiment: Calcium flux assay, HTS002C-CHEMISCREEN human CXCR2 calcium-optimized cell line; format: cell-based
Description: One of the signaling pathways downstream of CXCR2 activation that has a role in cell chemotaxis is characterized by calcium mobilization (flux). The ability of BKO-4A8-101c to inhibit human CXCR2 ligand-induced calcium flux was tested in the commercially available HTS002C-CHEMISCREEN™ human CXCR2 chemokine receptor calcium-optimized cell line.
The Fluo-4 NW calcium assay kit (Life Technologies) was used according to manufacturer's protocol for in-cell measurement of calcium mobilization, which was read using a FLIPR Tetra high-throughput cellular screening system (Molecular Devices). The peak response minus the basal response from each well was used to determine inhibition dose response curves fitting a four-parameter logistic equation and IC50 values.

cynomolgus monkeys = experiment: LPS induced acute lung inflammation in cynomolgus monkey; format: in vivo
Description: Biologics naïve (i.e. not previously administered exogenous biologics) male cynomolgus monkeys were randomized into groups receiving vehicle or the anti-CXCR2 antibody BKO-4A8-101c administered by intravenous administration at a dose of 1 mg/kg on days 0, 14, and 28. One hour post-treatment of test antibodies on day 0, animals were exposed to aerosolized bacterial lipopolysaccharide (LPS) by inhalation of 20 μg/L for 5 mins (total dose 20 μg/kg). This is a well-established model of acute lung inflammation. Inflammatory responses were characterized at 24 hours after LPS exposure by total and differential cell counts of bronchoalveolar lavage fluid of the left lung and compared to matched counts from naïve animals at pre-treatment day 14. Blood was collected at various time points for differential cell count and serum collected for pharmacokinetic analysis.

[1] = test system: human CXCR family members (CXCR1, CXCR3, CXCR4, CXCR5, CXCR6, CXCR7); experiment: Flow cytometry binding to other human CXCR family members on transfected Expi293F cells; settings: FIG. 11
Description: Harvested cells were resuspended in FACS buffer (1×PBS+0.5% (w/v) bovine serum albumin (BSA)+2 mM EDTA pH 7.2). Approximately 2×10^5 cells were added per well in a 96-well round-bottomed plate. Cells were pelleted by centrifugation at 400 g for 5 mins at 4° C. and supernatants discarded. 25 μL of each test antibody or control antibody was added to the cells and incubated for 30 minutes at 4° C. Cells were washed twice in 100 μL FACS buffer followed by centrifugation at 400 g for 5 mins at 4° C.
For detection, 50 μL of secondary antibody (Table 2) was added to relevant samples. Commercially available antibodies that bound to transfected CXCR family members were used as positive controls to ensure that the cells were expressing the receptors. Cells were washed twice in 200 μL of FACS buffer followed by centrifugation at 400 g for 5 mins at 4° C. Before sample acquisition, cells were resuspended in 100 μL of FACS buffer. Samples were acquired using the high throughput sampler on a FACSCanto™ II cytometer (Beckton-Dickinson). […]
The specificity of the anti-CXCR2 antibody BKO-4A8-101c was tested by assessing binding activity on Expi293F™ cells transiently transfected to express closely related human CXCR family members as illustrated in FIG. 11. Binding of BKO-4A8-101c was detected by incubation of fluorochrome-conjugate anti-human IgG antibody.

[2] = 1 mg/kg intravenous days 0, 14, 28

Molecule	Murine CXCR2 % Positive (Murine CXCR2) [%]	CXCL1 Maximal Inhibition % (Human CXCR2; CXCL1 at EC50) [%]	CXCL8 Maximal Inhibition % (Human CXCR2; CXCL8 at EC50) [%]	Maximal Inhibition % Mean (Human CXCR2; Hu CXCL1) [%]	Maximal Inhibition % Mean (Human CXCR2; Hu CXCL2) [%]	Maximal Inhibition % Mean (Human CXCR2; Hu CXCL3) [%]	Maximal Inhibition % Mean (Human CXCR2; Hu CXCL5) [%]	Maximal Inhibition % Mean (Human CXCR2; Hu CXCL6) [%]	Maximal Inhibition % Mean (Human CXCR2; Hu CXCL7) [%]	Maximal Inhibition % Mean (Human CXCR2; Hu CXCL8) [%]	LPS-induced pulmonary neutrophilia (cynomolgus monkeys; 1 mg/kg intravenous 1 hour before LPS, BAL 24 hours after LPS)	blood neutrophil counts following repeat dosing (cynomolgus monkeys; [2])	tolerability, body weight (cynomolgus monkeys; [2])	specificity of binding among human CXCR family members [1]
BKO-4A8: parental anti-CXCR2 antibody, VH SEQ ID NO: 17, VL SEQ ID NO: 18 (antibody, V domains shown, BKO_4A8_VH; BKO_4A8_VL) VH: EVQLLESGGGLVQPGGSLRLSCAASGFTFSSSTMSWVRQAPGKGLEWVSAISGRGRNTYYADSVKGRFTISRDNSRNTLYLQMNSLRAEDTAVYYCAIQMGYWGQGILVTVSS VL: QSALTQPPSASGSPGQSVTISCIGTSSDVGGYNYVSWYQQHPDKAPKLMIYEVNKRPSGVPDRFSGSKSGNTASLTVSGLQAEDEADYYCSSYAGNNNFGVFGGGTKLTVL	5													
101c: VH SEQ ID NO: 108, VL SEQ ID NO: 110; renamed BKO-4A8-101c (antibody, V domains shown, 4A8 VH Variant 101 M34Q_A40P_N56S_R75K_M96A; 4A8 VL variant c D41G_N52S_N94S, renamed BKO-4A8-101c) VH: EVQLLESGGGLVQPGGSLRLSCAASGFTFSSSTQSWVRQPPGKGLEWVSAISGRGRSTYYADSVKGRFTISRDNSKNTLYLQMNSLRAEDTAVYYCAIQAGYWGQGILVTVSS VL: QSALTQPPSASGSPGQSVTISCIGTSSDVGGYNYVSWYQQHPGKAPKLMIYEVSKRPSGVPDRFSGSKSGNTASLTVSGLQAEDEADYYCSSYAGSNNFGVFGGGTKLTVL		93	9	91	88	52	81	81	43	9	markedly inhibited	did not induce measurable changes	well tolerated with no loss in body weight	strongly and exclusively bind human CXCR2
